Measured values as given in patent US20160159922A1.

Target: citrullinated human fibrinogen peptide, residues 36-52 (cit-fib) (human)
Test: reactivity test against citrullinated peptide; arbitrary units relative to a serum pool standard; antibody at 5 ug/ml

reactivity (Au/ml at 5 ug/ml): 21 Au/ml
B1: ACPA11 (antibody, V domains shown)
VH: HLQLQESGPKLVKTSETLSLNCSVSRESIVRNDKFWGWVRQPPGKGLEWIGSINPLGRTFYTTSLKDRIRISFDTSEGYFSLSVASVTAADTAIYYCATDGEGVLFDEWSQGTLVTVSS
VL: QPVMTQPPSACGTPGQRVTIPCSGNTSNIGYNIVNWYQQVPGTAPKLLIYDNDKRPSGVPDRFSASKSVTSASLVISGLQSADEADYYCAVWDDDLSGVVIGEGTKLTVL
